{"source": "patent US20210355235A1", "about": "“Compositions and Methods For Treating Cancer with Anti-Renalase antibodies and Anti-PD1 antibodies” (YALE UNIVERSITY, priority 2017, published 2021)", "molecules": {"B1": {"name": "m37-RNLS: rabbit anti-renalase monoclonal raised against RP-220; heavy chain SEQ ID NO:17, light chain SEQ ID NO:18 (antibody)", "heavy": "METGLRWLLLVAVLKGVQCQSVEESGGRLVTPGGSLTLTCTVSGFSLSDYAIIWVRQAPGKGLEYIAIIGSSGDTFYATWAKGRFTISKTSTTVDLKMTSLTAADTATYFCAPRYAGTTDYHDAFDPWGPGTLVTVSSGQPKAPSVFPLAPCCGDTPSSTVTLGCLVKGYLPEPVTVTWNSGTLTNGVRTFPSVRQSSGLYSLSSVVSVTSSSQPVTCNVAHPATNTKVDKTVAPSTCSKPTCPPPELLGGPSVFIFPPKPKDTLMISRTPEVTCVVVDVSQDDPEVQFTWYINNEQVRTARPPLREQQFNSTIRVVSTLPIAHQDWLRGKEFKCKVHNKALPAPIEKTISKARGQPLEPKVYTMGPPREELSSRSVSLTCMINGFYPSDISVEWEKNGKAEDNYKTTPAVLDSDGSYFLYSKLSVPTSEWQRGDVFTCSVMHEALHNHYTQKSISRSPGK", "light": "MDTRAPTQLLGLLLLWLPGARCAEVVMTQTPASMEAPMGGTVTIKCQASQNIYNYLSWYQQKPGQPPKLLVYKASTLTSGVPSRFKGSGSGTQFTLTISDLECADAATYYCQINYSIYNHYNIIFGGGTEVVVKGDPVAPTVLIFPPSADLVATGTVTIVCVANKYFPDVTVTWEVDGTTQTTGIENSKTPQNSADCTYNLSSTLTLTSTQYNSHKEYTCKVTQGTTSVVQSFNRGDC", "modifications": "1D-37-10 full length heavy chain amino acid; 1D-37-10 full length light chain amino acid"}}, "key": {"[1]": {"system": "renalase-1 and renalase-2", "assay": "renalase isoform specificity of the antibodies (ELISA / hybridoma screening)", "assay_type": "binding, human", "conditions": "renalase-1 vs renalase-2", "procedure": "Peptides were used as immunogens. The peptides generated ranged from 9 to 21 amino acids and corresponded to regions of the renalase-1 and renalase-2 proteins. […] Each peptide was conjugated to the adjuvant KLH via the cysteine and used to immunize 6 rabbits. Antiserum collected from each animal was screened for anti-renalase antibody titer by ELISA assay using both the relevant peptide (BSA-conjugate) or full length renalase-1 or 2. The antisera were also tested for their ability to detect endogenous renalase in tissue lysates by western blot. Using these screening criteria the animals producing antibodies with the preferred characteristics were selected. In some examples and for some peptides, several animals produced antibodies with the required specificity. […] Polyclonal antibodies raised against all of the peptides were generated by purification of total IgG from terminal bleeds by protein G chromatography followed by further purification on peptide affinity chromatography. Further and using standard procedures, lymphocytes from the spleens of selected animals were fused to myeloma cells for hybridoma generation. The hybridoma supernatants were screened for binding to both the peptides against which they were raised and secondarily screened against whole renalase protein. Selected hybridomas were sub-cloned and expanded for antibody purification. The monoclonal antibodies were purified from conditioned hybridoma culture supernatant by protein A affinity chromatography."}, "melanoma cell lines": {"system": "melanoma cell lines", "assay": "melanoma cells in culture, viability / growth", "assay_type": "cell-based, human", "procedure": "Total cell number and percentage of live cells were assessed by trypan blue exclusion, and cells were counted using a BioRad TC10 automated cell counter. For additional studies, cell viability was determined using WST-1 reagent (Roche Diagnostics, Indianapolis, Ind., USA) according to the manufacturers' instruction. Absorbances were read using a microplate reader (Power Waves XS, BioTek Instruments, Winooski, Vt., USA)."}, "[2]": {"system": "PDACC (pancreatic ductal adenocarcinoma cells)", "assay": "PDACC viability with anti-RNLS antibodies, WST-1", "assay_type": "cell-based, human", "conditions": "72 hrs", "procedure": "FIG. 25, comprising FIGS. 25A through 25E, is a series of charts and images showing that inhibition of RNLS signaling is cytotoxic to cancer cells in vitro and in vivo. FIG. 25A is a chart showing relative cell viability following transient transfection of Panc1 cells using a RNLS-specific siRNA, or a non-specific control siRNA, and cell viability assayed 96 h later using the WST-1 reagent; n=6, ** indicates p<0.001. FIG. 25B is a chart showing relative cell viability when cells were treated with indicated antibodies for 72 hrs and cell viability determined using WST-1; m28-RNLS and m37-RNLS: monoclonal antibodies raised against RNLS peptide RP220, ab31291: Abcam polyclonal antibody raised against a partial sequence of RP-220; n=6, * indicates p<0.005. […] FIG. 25D is a chart showing tumor volume increase after athymic nude mice received subcutaneous injection of Panc1 cells transduced with RNLS shRNA (sh-RNLS) or control (sh-Control); tumor volume measured every […] for up to 30 days, n=6 each; * indicates p<0.05. FIG. 25E is chart showing tumor volume increase after nude mice were xenografted with BxPC3; tumor volume measured prior to treatment every 3-4 days with 2 mg/kg of either rabbit IgG as a negative control or with m28-RNLS, n=10, * indicates p<0.05.\nCell viability was assessed by trypan blue exclusion, and cells were counted using a BioRad TC10 automated counter."}}, "note": "Like-named read-outs stand apart in the source and are kept apart here."}
{"molecule": "B1", "values": [{"measurement": "renalase-type specificity", "setting": "[1]", "value": "recognize renalase-1 and renalase-2"}, {"measurement": "melanoma cell viability / growth in culture", "setting": "melanoma cell lines", "value": "decreased the viability of all (total of 5) melanoma cell lines tested"}, {"measurement": "melanoma cell viability / growth in culture", "setting": "melanoma cell lines; listed as 1D-37-10", "value": "inhibit melanoma cells in culture"}, {"measurement": "melanoma cell viability / growth in culture", "setting": "melanoma cell lines; listed as D-37-10", "value": "inhibit melanoma cell growth"}, {"measurement": "PDACC growth / viability", "setting": "[2]", "value": "inhibitory effects"}]}
